Experimental data: article PMC5523735
Read-outs that look alike come from different tables or passages of the source.

Experiments:
[1] = proBNP/BNP ratio in NRVM medium; conditions: glycan lost
[2] = proBNP/BNP ratio in human iPS-CM medium; conditions: glycan lost; control: control oligo
[3] = gel filtration: proBNP peak relative to mature BNP peak; conditions: glycan lost; control: WT-proBNP
[4] = proBNP/BNP ratio in cardiac fibroblast medium; conditions: glycan lost; control: WT-proBNP
[5] = control: control oligo, WT-proBNP

| Substance | other: proteolytic processing ([1]; control: WT-proBNP) | other (O-glycosylation other at T71) | other (O-glycosylation other at T48) | further results |
| --- | --- | --- | --- | --- |
| human proBNP (prohormone for brain natriuretic peptide): non-glyco | increases | – | – | – |
| proBNP (prohormone for brain natriuretic peptide): non-glyco versus T71glyco (only Thr71 preserved, other 6 sites Ala) | – | increases | – | – |
| proBNP (prohormone for brain natriuretic peptide): T71A (cardiac fibroblasts) | – | increases | – | – |
| human proBNP (prohormone for brain natriuretic peptide): T48A/T71A | increases | – | – | – |
| human proBNP (prohormone for brain natriuretic peptide): T48/T71glyco | increases | – | – | – |
| human proBNP (prohormone for brain natriuretic peptide): GALNT1 siRNA | – | – | – | other: proteolytic processing [1, 5]: increases; other: proteolytic processing [2]: increases |
| human proBNP (prohormone for brain natriuretic peptide): T71A | increases | – | – | other: proteolytic processing [3]: increases; other: proteolytic processing [4]: increases |
| proBNP (prohormone for brain natriuretic peptide): T48A | – | – | increases | – |
| proBNP (prohormone for brain natriuretic peptide): T48A (cardiac fibroblasts) | – | – | increases | – |
| human proBNP (prohormone for brain natriuretic peptide): GALNT2 siRNA | – | – | – | other: proteolytic processing [1, 5]: increases; other: proteolytic processing [2]: increases |
| human proBNP (prohormone for brain natriuretic peptide): T48A | increases | – | – | other: proteolytic processing [3]: increases; other: proteolytic processing [4]: increases |
| proBNP (prohormone for brain natriuretic peptide): non-glyco versus T48glyco (only Thr48 preserved, other 6 sites Ala) | – | – | increases | – |
| proBNP (prohormone for brain natriuretic peptide): GALNT1 or GALNT2 siRNA knockdown | – | increases | increases | – |
| proBNP (prohormone for brain natriuretic peptide): T48A/T71A | – | increases | increases | – |
| proBNP (prohormone for brain natriuretic peptide): T48/T71glyco (T36A, S37A, S44A, S53A, T58A) | – | – | – | other (O-glycosylation other at S37): increases; other (O-glycosylation other at S44): increases; other (O-glycosylation other at S53): increases; other (O-glycosylation other at T36): increases; other (O-glycosylation other at T58): increases |
| proBNP (prohormone for brain natriuretic peptide): T71A | – | increases | – | – |
